Measured values reported in article PMC10879702, “Host ZCCHC3 blocks HIV-1 infection and production through a dual mechanism”.

Key:
[1] = test system: GST-ZCCHC3 MF R168/247S (human); assay: pull-down
[2] = test system: GST-ZCCHC3 MF R168S (human); assay: pull-down
[3] = test system: GST-ZCCHC3 MF R247S (human); assay: pull-down
[4] = biological target: T1, GST-ZCCHC3 MF (middle-fold domain) (human, UniProt Q9NUD5 159-334); assay: pull-down; Pull-down: 20 mM Tris-HCl pH 7.4, 30 mM NaCl, 0.1 mM MgCl2, 1 mM DTT, RNase inhibitor, 10 min; EMSA: 40 mM Tris pH 8.0, 2 mM KCl, 1 mM MgCl2, 1% NP-40, 1 mM DTT, 25 C, 10 min; settings: protein: recombinant; tags: GST; hairpin
T1 sequence: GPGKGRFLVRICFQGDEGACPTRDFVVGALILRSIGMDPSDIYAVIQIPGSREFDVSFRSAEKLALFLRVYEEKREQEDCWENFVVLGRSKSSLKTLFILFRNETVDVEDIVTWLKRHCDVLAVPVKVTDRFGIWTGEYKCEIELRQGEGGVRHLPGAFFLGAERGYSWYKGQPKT

[5] = biological target: T1, GST-ZCCHC3 MF (middle-fold domain); assay: pull-down; settings: protein: recombinant; tags: GST; hairpin

Q: How did the binding signal [1] turn out when HIV-1 5' LTR (R-U5) RNA was run?
A: 15 % of WT

Q: What about the binding signal [2] of the same molecule?
A: 50 % of WT

Q: What about the binding signal [3] of the same molecule?
A: 50 % of WT

Q: Does CUAGAGAUCCCUCAGACCCUUUUAGUCAGUGUGGAAAAUCUCUAG (structured_RNA) [HIV-1 LTR SL3] bind [4]?
A: binds

Q: Does UCUCUGGUUAGACCAGAUCUGAGCCUGGGAGCUCUCUGGCUAACUAGGGA (structured_RNA) [HIV-1 LTR SL1] bind [5]?
A: binds

Q: Does CCACUGCUUAAGCCUCAAUAAAGCUUGCCUUGAGUGCUCAAAGUAGUGU (structured_RNA) [HIV-1 LTR SL2] bind [5]?
A: binds
